Reference: IntAct's records for PubMed 23933751

B1: F-box only protein 7 (Homo sapiens), Q9Y3I1 (parent)
chain: MRLRVRLLKRTWPLEVPETEPTLGHLRSHLRQSLLCTWGYSSNTRFTITLNYKDPLTGDEETLASYGIVSGDLICLILQDDIPAPNIPSSTDSEHSSLQNNEQPSLATSSNQTSMQDEQPSDSFQGQAAQSGVWNDDSMLGPSQNFEAESIQDNAHMAEGTGFYPSEPMLCSESVEGQVPHSLETLYQSADCSDANDALIVLIHLLMLESGYIPQGTEAKALSMPEKWKLSGVYKLQYMHPLCEGSSATLTCVPLGNLIVVNATLKINNEIRSVKRLQLLPESFICKEKLGENVANIYKDLQKLSRLFKDQLVYPLLAFTRQALNLPDVFGLVVLPLELKLRIFRLLDVRSVLSLSAVCRDLFTASNDPLLWRFLYLRDFRDNTVRVQDTDWKELYRKRHIQRKESPKGRFVMLLPSSTHTIPFYPNPLHPRPFPSSRLPPGIIGGEYDQRPTLPYVGDPISSLIPGPGETPSQFPPLRPRFDPVGPLPGPNPILPGRGGPNDRFPFRPSRGRPTDGRLSFM

Variants of: B1
Details: with prkn_human PRKN

Row | Variant | effect of a mutation on the interaction
1 | T22M | disrupting interaction
